Measured values published in publication PMC8529501 (iScience, 2021).

What was measured:
[1] = target: T1, SIRT2 (Homo sapiens, UniProt Q8IXJ6); experiment: ITC; also label-free MST (Kd […]) and native PAGE; format: binding
T1 construct: GST-tagged SIRT2 expressed in E. coli BL21

[2] = target: mTOR (FRB)-N-Luciferase reporter; experiment: split-luciferase complementation (dual element luciferase assay); design: unit not given here; conditions: HEK293T cells, rapamycin treatment; parent: est. 13; read off a plot

T1 sequence (Q8IXJ6 2-389): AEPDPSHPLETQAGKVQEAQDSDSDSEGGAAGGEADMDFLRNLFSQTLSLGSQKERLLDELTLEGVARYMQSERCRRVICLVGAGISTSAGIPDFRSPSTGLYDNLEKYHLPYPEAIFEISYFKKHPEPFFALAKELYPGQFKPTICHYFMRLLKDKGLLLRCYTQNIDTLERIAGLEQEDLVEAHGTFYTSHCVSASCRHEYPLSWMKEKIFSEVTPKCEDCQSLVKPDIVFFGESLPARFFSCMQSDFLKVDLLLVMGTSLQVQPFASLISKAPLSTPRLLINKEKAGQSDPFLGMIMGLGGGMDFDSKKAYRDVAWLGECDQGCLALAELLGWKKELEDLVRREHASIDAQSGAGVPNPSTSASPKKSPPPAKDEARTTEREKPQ

response [2] | Molecule | Kd [1]
 | CO[C@H]1C[C@@H]2CC[C@@H](C)[C@@](O)(O2)C(=O)C(=O)N2CCCC[C@H]2C(=O)O[C@H]([C@H](C)C[C@@H]2CC[C@@H](O)[C@H](OC)C2)CC(=O)[C@H](C)/C=C(\C)[C@@H](O)[C@@H](OC)C(=O)[C@H](C)C[C@H](C)/C=C/C=C/C=C/1C [Rapamycin] | 9.5 nM
5.5 | FKBP12-C-Luc (from UniProt P62942) E108A | 
1.9 | FKBP12-C-Luc (from UniProt P62942) K45Q | 
13 | FKBP12-C-Luc (from UniProt P62942) K45R | 
5 | FKBP12-C-Luc (from UniProt P62942) K48Q | 
16 | FKBP12-C-Luc (from UniProt P62942) K48R | 
10 | FKBP12-C-Luc (from UniProt P62942) K53Q | 
16 | FKBP12-C-Luc (from UniProt P62942) K53R | 
